{
  "source": "IntAct's records for PubMed 30510991",
  "parents": {"B1": {"name": "Forkhead box protein P3 (Homo sapiens), Q9BZS1 (parent)", "chain": "MPNPRPGKPSAPSLALGPSPGASPSWRAAPKASDLLGARGPGGTFQGRDLRGGAHASSSSLNPMPPSQLQLPTLPLVMVAPSGARLGPLPHLQALLQDRPHFMHQLSTVDAHARTPVLQVHPLESPAMISLTPPTTATGVFSLKARPGLPPGINVASLEWVSREPALLCTFPNPSAPRKDSTLSAVPQSSYPLLANGVCKWPGCEKVFEEPEDFLKHCQADHLLDEKGRAQCLLQREMVQSLEQQLVLEKEKLSAMQAHLAGKMALTKASSVASSDKGSCCIVAAGSQGPVVPAWSGPREAPDSLFAVRRHLWGSHGNSTFPEFLHNMDYFKFHNMRPPFTYATLIRWAILEAPEKQRTLNEIYHWFTRMFAFFRNHPATWKNAIRHNLSLHKCFVRVESEKGAVWTVDELEFRKKRSQRPSRCSNPTPGP"}},
  "data": [
    {"variants_of": "B1", "details": "with ezh2_human EZH2, Q15910", "values": [
      {"variant": "C232G", "effect of a mutation on the interaction": "decreasing interaction"}
    ]}
  ]
}
